Results from publication PMC4289141.

Tests used:
[1] = biological target: ^C81/C96RIDC1 (the C81/C96 double mutant of Rosetta Interface Designed Cytochrome 1) (UniProt P0ABE7); test: AUC
[2] = biological target: ^C81/C96RIDC1 (the C81/C96 double mutant of Rosetta Interface Designed Cytochrome 1) (UniProt P0ABE7); test: cross-linking

With “^C81/C96RIDC1 (the C81/C96 double mutant of Rosetta Interface Designed Cytochrome 1) (from UniProt P0ABE7 23-128) (natural protein)” the stoichiometry N [1] was 4, the abundance of polymeric species (19:1 GSH/GSSG, 1 mM, 1 day) [2] was 13% and the abundance of the tetramer (air oxidation, room temperature) [2] was 48%. For the same substance, the yield of the tetramer (19:1 GSH/GSSG, 1 mM, 1 day) [2] was 63%.
